Where a chain is given by its changes, count along the chain named. In names and notes the source's numbering stands.
T1: human C1s (human, UniProt P09871 16-688)
T1 construct: also called hC1s; serum-derived human C1s (CompTech)
T1 sequence: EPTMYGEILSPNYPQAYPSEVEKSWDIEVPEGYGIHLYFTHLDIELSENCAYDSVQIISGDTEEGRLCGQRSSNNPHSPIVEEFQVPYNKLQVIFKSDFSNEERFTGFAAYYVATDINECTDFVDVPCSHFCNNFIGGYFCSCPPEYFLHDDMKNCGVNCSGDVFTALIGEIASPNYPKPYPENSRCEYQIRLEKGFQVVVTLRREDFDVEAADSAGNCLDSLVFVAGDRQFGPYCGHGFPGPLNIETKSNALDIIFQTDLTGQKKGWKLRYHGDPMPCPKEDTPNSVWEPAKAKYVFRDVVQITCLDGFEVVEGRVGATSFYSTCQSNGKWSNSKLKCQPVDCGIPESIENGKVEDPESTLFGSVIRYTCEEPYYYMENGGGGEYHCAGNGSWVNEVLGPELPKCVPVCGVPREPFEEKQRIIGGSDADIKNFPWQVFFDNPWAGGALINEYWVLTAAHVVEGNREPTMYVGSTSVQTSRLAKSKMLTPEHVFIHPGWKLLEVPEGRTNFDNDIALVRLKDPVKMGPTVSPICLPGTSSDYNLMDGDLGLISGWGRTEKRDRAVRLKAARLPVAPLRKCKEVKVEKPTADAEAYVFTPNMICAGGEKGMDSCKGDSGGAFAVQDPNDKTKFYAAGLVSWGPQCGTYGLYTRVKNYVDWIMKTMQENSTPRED

T2: human C1s (human, UniProt P09871 16-688)
T2 construct: Analyte in the Biacore assays; also called hC1s; serum-derived human C1s (CompTech)
T2 sequence: T1 sequence

B1: C1_IPN92H0282-SG4GK/IPN93L0024-SK1 (antibody, human IgG4 S228P, kappa, name in Kabat numbering, V domains shown)
VH: EVMLVESGGGLVKPGGSLRLSCAASGFTFSNYAMSWVRQAPGKGLEWVATISSGGSHTYELDSVDERFTISRDNSKDTLYLQMNSLRAEDTALYYCARLFTKHAMDYWGQGTLVTVSS
VL: QIVLTQSPATLSLSPGERATLSCTASSSVSSSYLHWYQQKPGKAPKLWIYSTSNLASGVPSRFSGSGSGTDYTLTISSLQPEDFATYYCHQYYRLHPITFGQGTKLEIKR
notes: also called IPN92H0282/IPN93L0024
B2: C1_IPN92H0282-SG4GK/IPN93L0091-SK1 (antibody, human IgG4 S228P, kappa, name in Kabat numbering, V domains shown)
VH: B1 VH
VL: B1 VL with Y33R
notes: also called IPN92H0282/IPN93L0091
B3: C1_IPN92H0286-SG4GK/IPN93L0205-SK1 (antibody, human IgG4 S228P, kappa, name in Kabat numbering)
heavy: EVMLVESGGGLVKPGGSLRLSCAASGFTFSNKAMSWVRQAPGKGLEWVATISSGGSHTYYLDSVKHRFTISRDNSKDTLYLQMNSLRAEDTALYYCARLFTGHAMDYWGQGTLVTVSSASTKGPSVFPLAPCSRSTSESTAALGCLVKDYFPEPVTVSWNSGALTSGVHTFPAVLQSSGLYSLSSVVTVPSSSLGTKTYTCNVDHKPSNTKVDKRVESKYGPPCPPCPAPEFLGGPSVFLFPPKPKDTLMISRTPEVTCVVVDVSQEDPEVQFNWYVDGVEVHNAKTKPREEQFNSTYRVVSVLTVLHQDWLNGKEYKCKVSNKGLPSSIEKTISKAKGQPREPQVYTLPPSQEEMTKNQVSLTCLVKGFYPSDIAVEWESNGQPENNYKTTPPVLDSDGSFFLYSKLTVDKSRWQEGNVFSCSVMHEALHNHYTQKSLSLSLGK
light: QIVLTQSPATLSLSPGERATLSCTASSSVSSSRLHWYQQKPGKAPKLWIYSTSNLASGVPSRFSGSGSGTDYTLTISSLQPEDFATYYCHQYHRHPPITFGQGTKLEIKRTVAAPSVFIFPPSDEQLKSGTASVVCLLNNFYPREAKVQWKVDNALQSGNSQESVTEQDSKDSTYSLSSTLTLSKADYEKHKVYACEVTHQGLSSPVTKSFNRGEC
notes: also called IPN92H0286/IPN93L0205
B4: C1_IPN92H0288-SG4GK/IPN93L0212-SK1 (antibody, human IgG4 S228P, kappa, name in Kabat numbering, V domains shown)
VH: B1 VH with E66G
VL: B1 VL with S28E, S31E, Y33R
notes: VH = IPN009VH2 with Y59E/K64D/G98K/Y99H (Kabat); also called IPN92H0288/IPN93L0212
B5: C1_IPN92H0033-SG4GK/IPN93L0024-SK1 (antibody, human IgG4 S228P, kappa)
heavy: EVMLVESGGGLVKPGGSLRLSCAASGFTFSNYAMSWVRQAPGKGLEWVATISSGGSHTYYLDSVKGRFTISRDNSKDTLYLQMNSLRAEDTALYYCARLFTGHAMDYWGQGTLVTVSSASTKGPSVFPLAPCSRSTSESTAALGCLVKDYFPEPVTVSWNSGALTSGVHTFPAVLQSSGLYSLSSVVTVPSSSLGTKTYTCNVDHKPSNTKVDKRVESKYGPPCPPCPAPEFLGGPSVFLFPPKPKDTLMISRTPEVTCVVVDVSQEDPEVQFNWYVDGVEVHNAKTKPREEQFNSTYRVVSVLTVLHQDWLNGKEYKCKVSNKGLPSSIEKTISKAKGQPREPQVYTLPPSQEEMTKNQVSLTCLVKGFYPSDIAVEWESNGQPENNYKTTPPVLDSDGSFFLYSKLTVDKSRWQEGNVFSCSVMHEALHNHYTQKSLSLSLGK
light: B3 light with R33Y, H93Y, H95L, P96H
notes: VH Y99H, VL P95H against the parent (Kabat); also called IPN92H0033/IPN93L0024
B6: C1_IPN92H0157-SG4GK/IPN93L0024-SK1 (antibody, human IgG4 S228P, kappa, name in Kabat numbering, V domains shown)
VH: B1 VH with Y59R, E60Y, D65K, E66G, K102G
VL: B1 VL
notes: Substitutions from IPN009VH2, Kabat numbering; also called IPN92H0157/IPN93L0024
B7: C1_IPN92H0061-SG4GK/IPN93L0024-SK1 (antibody, human IgG4 S228P, kappa, name in Kabat numbering, V domains shown)
VH: B1 VH with F29K, E60Y, D65K, E66G, K102G
VL: B1 VL
notes: Substitutions from IPN009VH2, Kabat numbering; also called IPN92H0061/IPN93L0024
B8: C1_IPN92H0156-SG4GK/IPN93L0024-SK1 (antibody, human IgG4 S228P, kappa, name in Kabat numbering, V domains shown)
VH: B1 VH with Y59K, E60Y, D65K, E66G, K102G
VL: B1 VL
notes: Substitutions from IPN009VH2, Kabat numbering; also called IPN92H0156/IPN93L0024
B9: C1_IPN92H0144-SG4GK/IPN93L0024-SK1 (antibody, human IgG4 S228P, kappa, name in Kabat numbering, V domains shown)
VH: B1 VH with H57K, E60Y, D65K, E66G, K102G
VL: B1 VL
notes: Substitutions from IPN009VH2, Kabat numbering; also called IPN92H0144/IPN93L0024
B10: C1_IPN92H0033-SG4GK/IPN93L0072-SK1 (antibody, human IgG4 S228P, kappa, name in Kabat numbering, V domains shown)
VH: B1 VH with E60Y, D65K, E66G, K102G
VL: B1 VL with S30K
notes: VL substitutions from IPN009VK3, Kabat numbering; also called IPN92H0033/IPN93L0072
B11: C1_IPN92H0091-SG4GK/IPN93L0024-SK1 (antibody, human IgG4 S228P, kappa, name in Kabat numbering, V domains shown)
VH: B1 VH with M34K, E60Y, D65K, E66G, K102G
VL: B1 VL
notes: Substitutions from IPN009VH2, Kabat numbering; also called IPN92H0091/IPN93L0024
B12: C1_IPN92H0033-SG4GK/IPN93L0090-SK1 (antibody, human IgG4 S228P, kappa, name in Kabat numbering, V domains shown)
VH: B1 VH with E60Y, D65K, E66G, K102G
VL: B1 VL with Y33K
notes: VL substitutions from IPN009VK3, Kabat numbering; also called IPN92H0033/IPN93L0090
B13: C1_IPN92H0145-SG4GK/IPN93L0024-SK1 (antibody, human IgG4 S228P, kappa, name in Kabat numbering, V domains shown)
VH: B1 VH with H57R, E60Y, D65K, E66G, K102G
VL: B1 VL
notes: Substitutions from IPN009VH2, Kabat numbering; also called IPN92H0145/IPN93L0024
B14: C1_IPN92H0147-SG4GK/IPN93L0024-SK1 (antibody, human IgG4 S228P, kappa, name in Kabat numbering, V domains shown)
VH: B1 VH with T58D, E60Y, D65K, E66G, K102G
VL: B1 VL
notes: Substitutions from IPN009VH2, Kabat numbering; also called IPN92H0147/IPN93L0024
B15: C1_IPN92H0080-SG4GK/IPN93L0024-SK1 (antibody, human IgG4 S228P, kappa, name in Kabat numbering, V domains shown)
VH: B1 VH with Y32R, E60Y, D65K, E66G, K102G
VL: B1 VL
notes: Substitutions from IPN009VH2, Kabat numbering; also called IPN92H0080/IPN93L0024
B16: C1_IPN92H0117-SG4GK/IPN93L0024-SK1 (antibody, human IgG4 S228P, kappa, name in Kabat numbering, V domains shown)
VH: B1 VH with S53Q, E60Y, D65K, E66G, K102G
VL: B1 VL
notes: Substitutions from IPN009VH2, Kabat numbering; also called IPN92H0117/IPN93L0024
B17: C1_IPN92H0079-SG4GK/IPN93L0024-SK1 (antibody, human IgG4 S228P, kappa, name in Kabat numbering, V domains shown)
VH: B1 VH with Y32K, E60Y, D65K, E66G, K102G
VL: B1 VL
notes: Substitutions from IPN009VH2, Kabat numbering; also called IPN92H0079/IPN93L0024

Experiments:
human C1s [1] = target: T1, human C1s; experiment: SPR, Ab captured; pH 7.4, 1.2 mM Ca
Experimental: (§1) Each antibody was captured onto the sensor surface by protein A/G. Antibody capture levels were aimed at 200 resonance unit (RU). Serum-derived human C1s (CompTech) or recombinant C1s prepared in EXAMPLE 1 was injected at 50 nM, followed by dissociation. The sensor surface was regenerated in each cycle with 10 mM Glycine-HCl, pH 1.5. […] The ratio of KD 5.8+ to KD 7.4+(“KD 5+/7+”) and that of KD 5.8− to KD 7.4+(“KD 5−/7+”) were calculated. When the KD 5+/7+ or KD 5−/7+ of a variant is larger than that of the parent antibody IPN009VH2-SG4GK/IPN009VK3-SK1, that variant is considered to be “pH”- or “pH and Ca”-dependent, respectively. When binding response in 5(+) buffer and/or in 5(−) buffer of a variant is much lower than that of IPN09VH2/IPN009VK3, that variant is also considered as “pH”- and/or “pH and Ca”-dependent. Therefore, such mutations are effective to generate “pH”- and/or “pH and Ca”-dependent antibody. To further enhance “pH” and/or “pH and Ca” dependency, a combination of histidine mutations was conducted. Antibodies with combinations of histidine mutations were evaluated using Biacore by the method described above.
(§2) C1_1IPN92H0033 (SEQ ID NO: 17)-SG4GK/IPN93L0024 (SEQ ID NO: 18)-SK1 (IPN92H0033/IPN93L0024) was selected for further optimization. Histidine, Lysine, Arginine, aspartic acid, glutamic acid, and glutamine scanning was conducted for CDRs and certain positions of FRs of IPN92H0033/IPN93L0024. Variants with a mutation were generated and purified, and evaluated using Biacore by the method mentioned above. All variants were evaluated using Biacore as mentioned above. Mutations that improved “pH” and/or “pH and Ca” dependency were selected for the combination.

human C1s [2] = target: T2, human C1s; experiment: SPR; KD at pH 5.8 (1.2 mM Ca) over KD at pH 7.4 (1.2 mM Ca)
Experimental: as §1, §2

human C1s [3] = target: T2, human C1s; experiment: SPR; KD at pH 5.8 (3 uM Ca) over KD at pH 7.4 (1.2 mM Ca)
Experimental: as §1, §2

human C1s [4] = target: T2, human C1s; experiment: SPR (Biacore T200, 37C), Ab captured on protein A/G; pH 5.8, 1.2 mM Ca
Experimental: as §1, §2

human C1s [5] = target: T2, human C1s; experiment: SPR (Biacore T200, 37C), Ab captured on protein A/G; pH 5.8, 3 uM Ca
Experimental: as §1, §2

Kd (human C1s [1]) [nM]	koff (human C1s [1]) [s⁻¹]	kon (human C1s [1]) [M⁻¹ s⁻¹]	KD 5(+)/7(+) (human C1s [2])	KD 5(-)/7(+) (human C1s [3])	koff (human C1s [4]) [s⁻¹]	kon (human C1s [4]) [M⁻¹ s⁻¹]	Kd (human C1s [5]) [nM]	koff (human C1s [5]) [s⁻¹]	kon (human C1s [5]) [M⁻¹ s⁻¹]	Kd (human C1s [4]) [nM]	Binder
1.65	0.000632	383000	–	–	–	–	–	–	–	–	B1
1.96	0.000924	471000	–	–	–	–	–	–	–	–	B2
1.58	0.00156	984000	–	–	–	–	–	–	–	–	B3
1.81	0.00117	648000	–	–	–	–	–	–	–	–	B4
–	–	–	3	1.83	0.0045	519000	–	–	–	–	B5
–	–	–	9.3	5.07	0.012	636000	10.3	0.00583	564000	18.8	B6
–	–	–	1.7	0.79	0.022	1.85e+06	5.43	0.00344	633000	11.9	B7
–	–	–	7	4.62	0.00948	641000	9.8	0.00632	645000	14.8	B8
–	–	–	6.4	1.54	0.0265	1.13e+06	5.65	0.00317	562000	23.4	B9
–	–	–	6.7	4.18	0.00529	530000	5.72	0.00553	967000	9.12	B10
–	–	–	4.5	1.28	0.00634	530000	3.43	2.67	7.8e+08	12	B11
–	–	–	6.8	5.13	0.0055	577000	7.18	0.00427	595000	9.52	B12
–	–	–	4.1	1.36	0.0496	2.58e+06	6.4	0.003	469000	19.2	B13
–	–	–	6.4	1.58	0.00589	445000	3.23	–	–	13.2	B14
–	–	–	5	2.86	0.0129	814000	9.09	0.00651	717000	15.9	B15
–	–	–	3.8	2.26	0.00799	610000	7.71	0.00542	703000	13.1	B16
–	–	–	5.7	2.6	0.0162	838000	8.75	0.0052	594000	19.3	B17

From patent publication US20210032365A1 (Chugai, published 2021)
